Measurements: patent publication JP2011147454A (dated 2011)
Substitutions are numbered along the chain they refer to. Like-named read-outs stand apart in the source and are kept apart here.

Legend:
[1] = molecular target: 未変性の(天然に存在する)ヒトIL-13 (HDLM-2細胞から放出) (human) (UniProt P35225); assay: cell-based or functional assay
[2] = molecular target: 組換え細菌由来のヒトIL-13 (Peprotech) (human) (UniProt P35225); assay: cell-based or functional assay
[3] = molecular target: T1, 非ヒト霊長類IL-13 (アカゲザル/カニクイザル; バキュロウイルス発現, C末端親和性タグ付き) (rhesus / cynomolgus monkey); assay: cell-based or functional assay
T1 chain: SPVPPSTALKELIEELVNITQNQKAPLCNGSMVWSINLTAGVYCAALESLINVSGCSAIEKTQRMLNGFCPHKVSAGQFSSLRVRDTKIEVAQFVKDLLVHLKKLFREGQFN

[4] = molecular target: ヒト変種IL-13 (Q130R) (バキュロウイルス発現, C末端親和性タグ付き) (human) (UniProt P35225); assay: cell-based or functional assay
[5] = molecular target: 組換え細菌由来のヒトIL-13 (Peprotech) (human) (UniProt P35225); assay: SPR (BIAcore 2000), IgG4 amine-coupled to chip (~500 RU), IL-13 50-0.78 nM in solution
[6] = molecular target: 未変性の(天然に存在する)ヒトIL-13 (HDLM-2細胞から放出) (human) (UniProt P35225); assay: cell-based or functional assay; remark: listed apart in the source
[7] = molecular target: 野生型ヒトIL-13 (バキュロウイルス発現, C末端親和性タグ付き) (human) (UniProt P35225); assay: cell-based or functional assay
[8] = molecular target: 組換え細菌由来のヒトIL-13 (Peprotech) (human) (UniProt P35225); assay: cell-based or functional assay; remark: listed apart in the source
[9] = molecular target: ヒト変種IL-13 (Q130R) (バキュロウイルス発現, C末端親和性タグ付き) (human) (UniProt P35225); assay: cell-based or functional assay; remark: listed apart in the source
[10] = molecular target: T2, 組換え細菌由来のネズミIL-13 (Peprotech) (murine (mouse), UniProt P20109 21-131, limits assumed); assay: cell-based or functional assay
T2 sequence (looked up): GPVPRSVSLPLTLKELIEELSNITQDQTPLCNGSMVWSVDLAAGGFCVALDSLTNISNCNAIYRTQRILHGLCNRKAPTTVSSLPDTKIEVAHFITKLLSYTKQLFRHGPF

[11] = molecular target: T2, 組換え細菌由来のネズミIL-13 (Peprotech); assay: SPR (BIAcore 2000), IgG4 amine-coupled to chip (~500 RU), IL-13 50-0.78 nM in solution
[12] = molecular target: 組換えヒトエオタキシン-1 (R&D Systems) (human) (UniProt P51671); assay: cell-based or functional assay
UniProt P51671, sequence (P51671 24-97 limits assumed): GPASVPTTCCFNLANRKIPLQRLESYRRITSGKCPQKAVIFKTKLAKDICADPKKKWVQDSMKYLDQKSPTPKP

JES10-5A2 (ラットIgG1, Biosource) (antibody)
IC50, HDLM-2細胞増殖アッセイ [1]: 10.7 nM | IC50, NHLFエオタキシン放出アッセイ [2]: 0.623 nM | IC50, TF-1細胞増殖アッセイ [2]: 1.02 nM

B-B13 (マウスIgG1, Euroclone) (antibody)
IC50, HDLM-2細胞増殖アッセイ [1]: 16.7 nM | IC50, NHLFエオタキシン放出アッセイ [2]: 0.219 nM | IC50, TF-1細胞増殖アッセイ [2]: 0.471 nM

BAK502G9 IgG4 (antibody)
IC50, HDLM-2細胞増殖アッセイ [1]: 4.6 nM

B1: BAK502G9 IgG4 (antibody, V domains shown)
VH: QVQLVQSGAEVKKPGASVKVSCKASGYTFTNYGLSWVRQAPGQGLEWMGWISANNGDTNYGQEFQGRVTMTTDTSTSTAYMELRSLRSDDTAVYYCARDSSSSWARWFFDLWGRGTLVTVSS
VL: SYVLTQPPSVSVAPGKTARITCGGNIIGSKLVHWYQQKPGQAPVLVIYDDGDRPSGIPERFSGSNSGNTATLTISRVEAGDEADYYCQVWDTGSDPVVFGGGTKLTVL
IC50, TF-1細胞増殖アッセイ [3]: 2 nM | IC50, TF-1細胞増殖アッセイ [4]: 1.9 nM

B2: BAK1183H4 IgG4 (antibody, V domains shown)
VH: B1 VH with S52N, A53Y, N54D, N55G, D57N, N59Q
VL: B1 VL with T21P
IC50, TF-1細胞増殖アッセイ [3]: 1.6 nM

B3: BAK1183H4 IgG4 (antibody, from another filing, V domains shown)
VH: B1 VH with S52N, A53Y, N54D, N55G, D57N, N59Q
VL: B1 VL
Kd [5]: 0.081 nM | IC50, HDLM-2細胞増殖アッセイ [6]: 3.5 nM | IC50, TF-1細胞増殖アッセイ [7]: 0.9 nM | IC50, HUVEC VCAM-1アップレギュレーション [8]: 0.058 nM | IC50, NHLFエオタキシン放出アッセイ [8]: 0.118 nM | IC50, TF-1細胞増殖アッセイ [9]: 1 nM

B4: BAK1167F2 IgG4 (antibody, V domains shown)
VH: B1 VH with T30E, N31Q, Y32T, L34V
VL: B1 VL
Kd [5]: 0.136 nM | IC50, HDLM-2細胞増殖アッセイ [6]: 1.1 nM | IC50, TF-1細胞増殖アッセイ [7]: 1 nM | IC50, HUVEC VCAM-1アップレギュレーション [8]: 0.055 nM | IC50, NHLFエオタキシン放出アッセイ [8]: 0.069 nM | IC50, TF-1細胞増殖アッセイ [9]: 1.1 nM | IC50, TF-1細胞増殖アッセイ [3]: 1.3 nM

B5: BAK209B11 scFv (scFv, V domains shown)
VH: VQLQESGGGGLVQPGGSLRLSCAASGFTFSSYGMSWVRQAPGKGLEWVSSISASGDSTFYADSVKGRFTISRDNNKNMVFLQVNSLRADDTAVYFCAKDWSQWLVGDAFDVWGRGTTVTVSS
VL: DIQLTQSPSTLSASVGDRVTITCRASQSVSLWVAWYQQRPGKAPKLLIYDGSTLQSGVPARFSGSGSGTEFTLTISSLQPDDFATYYCQQYKTFSTFGQGTKVEIK
IC50, TF-1細胞増殖アッセイ [10]: 185 nM

B6: BAK209B11 IgG4 (antibody, V domains shown)
VH: B5 VH
VL: DIQLTQSPSTLSASVGDRVTITCRASQSVSLWVAWYQQRPGKAPKLLIYDGSTLQSGVPARFSGSGSGTEFTLTISSLQPDDFATYYCQQYKTFSTFGQGTKVEIKR
IC50, B9細胞増殖アッセイ [10]: 0.776 nM | Kd [11]: 5.1 nM

B7: CAT-213 (antibody, from another filing, V domains shown)
VH: QVQLVQSGGGVVQPGRSLRLSCAASGFTFSSYGMHWVRQAPGKGLEWVAVISYDGSIKHYADSVKGRFTISRDNSKNTLYLQMNSLRTDDTAVYYCAGDTDYGDIDPWGQGTMVTVSS
VL: DIQMTQSPSSVSASVGDRVTITCRASQDISSWLAWYQQKPGKAPKLLIYAASSLQSGVPSRFSGSGSGTDFTLTISSLQPEDFATYYCQQASSFPSITFGQGTRLEIKR
好酸球形態変化 (%ブランク形態変化), 100 nM CAT-213 [12]: 101%
